Ends that are not written are not given here. * marks the point of attachment. Biotin = O=C1N[C@H]2[C@H](CS[C@H]2CCCCC(=O)*)N1
Tests used:
[1] = target: T1, human BakΔC25 protein (residues 1-186 of SwissProt Accession No. Q16611.1) (human, UniProt Q16611 1-186); assay: SPR, BIAcore 3000
T1 construct: also called humanAC25 Bak protein; hBakAC
T1 sequence: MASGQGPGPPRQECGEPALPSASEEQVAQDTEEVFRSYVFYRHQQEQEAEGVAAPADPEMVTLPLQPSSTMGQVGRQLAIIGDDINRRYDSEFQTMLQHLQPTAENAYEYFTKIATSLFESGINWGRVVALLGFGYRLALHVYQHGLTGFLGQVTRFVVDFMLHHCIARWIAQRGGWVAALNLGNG

[2] = target: T2, Bak loop peptide 46EQEAEGVAAPADPEMVTLPLQPSS69 (human); assay: SPR, BIAcore 3000
T2 construct: also called Bak peptide (residues E46 to S69 of human Bak)
T2 peptide: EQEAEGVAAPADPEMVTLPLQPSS

[3] = target: T3, human Bak 15-mer peptide 1-15; assay: peptide ELISA, A405
T3 construct: member of m17
T3 peptide: Biotin-SGSGMASGQGPGPPRQECG
Procedure: (§1) Since most epitopes were linear, further mapping was performed using peptide arrays. Two arrays of overlapping 15-mer peptides (each offset by 10 residues) that collectively spanned the entire sequences of human and mouse Bak were designed. Biotinylated peptides were immobilized on streptavidin-coated plates and each antibody tested by ELISA.

[4] = target: T4, mouse Bak 15-mer peptide 71-85; assay: peptide ELISA, A405
T4 construct: member of m18
T4 peptide: Biotin-SGSGQVGRQLALIGDDINR
Procedure: as §1

[5] = target: T5, mouse Bak 15-mer peptide 81-95; assay: peptide ELISA, A405
T5 construct: member of m18
T5 peptide: Biotin-SGSGDDINRRYDTEFQNLL
Procedure: as §1

[6] = target: T6, human Bak 15-mer peptide 21-35; assay: peptide ELISA, A405
T6 construct: member of m17
T6 peptide: Biotin-SGSGSASEEQVAQDTEEVF
Procedure: as §1

[7] = target: T7, human Bak 15-mer peptide 31-45; assay: peptide ELISA, A405
T7 construct: member of m17
T7 peptide: Biotin-SGSGTEEVFRSYVFYRHQQ
Procedure: as §1

[8] = target: T8, human Bak 15-mer peptide 41-55; assay: peptide ELISA, A405
T8 construct: member of m17
T8 peptide: Biotin-SGSGYRHQQEQEAEGVAAP
Procedure: as §1

[9] = target: T9, human Bak 15-mer peptide 51-65; assay: peptide ELISA, A405
T9 construct: member of m17
T9 peptide: Biotin-SGSGGVAAPADPEMVTLPL
Procedure: as §1

[10] = target: T10, human Bak 15-mer peptide 81-95; assay: peptide ELISA, A405
T10 construct: member of m17
T10 peptide: Biotin-SGSGIGDDINRRYDSEFQT
Procedure: as §1

[11] = target: T11, mouse Bak 15-mer peptide 21-35; assay: peptide ELISA, A405
T11 construct: member of m18
T11 peptide: Biotin-SGSGSEQQVAQDTEEVFRS
Procedure: as §1

[12] = target: T12, mouse Bak 15-mer peptide 31-45; assay: peptide ELISA, A405
T12 construct: member of m18
T12 peptide: Biotin-SGSGEVFRSYVFYLHQQEQ
Procedure: as §1

[13] = target: T13, mouse Bak 15-mer peptide 41-55; assay: peptide ELISA, A405
T13 construct: member of m18
T13 peptide: Biotin-SGSGHQQEQETQGAAAPAN
Procedure: as §1

[14] = target: T14, human Bak 15-mer peptide for residues 11-25 (human, UniProt Q16611 11-25); assay: peptide ELISA, A405
T14 construct: range 11-25
T14 peptide: Biotin-SGSGRQECGEPALPSASEE
Procedure: as §1

[15] = target: T15, SEEQVAQD; assay: peptide ELISA, A405
T15 construct: member of m19; also called hBak 8-mer 23-30
T15 peptide: Biotin-SGSGSEEQVAQD

[16] = target: T16, EEQVAQDT; assay: peptide ELISA, A405
T16 construct: member of m19; also called hBak 8-mer 24-31
T16 peptide: Biotin-SGSGEEQVAQDT

[17] = target: T17, EQVAQDTE; assay: peptide ELISA, A405
T17 construct: member of m19; also called hBak 8-mer 25-32
T17 peptide: Biotin-SGSGEQVAQDTE

[18] = target: T18, QVAQDTEE; assay: peptide ELISA, A405
T18 construct: member of m19; also called hBak 8-mer 26-33
T18 peptide: Biotin-SGSGQVAQDTEE

[19] = target: T19, VAQDTEEV; assay: peptide ELISA, A405
T19 construct: member of m19; also called hBak 8-mer 27-34
T19 peptide: Biotin-SGSGVAQDTEEV

[20] = target: T20, AQDTEEVF; assay: peptide ELISA, A405
T20 construct: member of m19; also called hBak 8-mer 28-35
T20 peptide: Biotin-SGSGAQDTEEVF

[21] = target: T21, QDTEEVFR; assay: peptide ELISA, A405
T21 construct: member of m19; also called hBak 8-mer 29-36
T21 peptide: Biotin-SGSGQDTEEVFR

[22] = target: T22, DTEEVFRS; assay: peptide ELISA, A405
T22 construct: member of m19; also called hBak 8-mer 30-37
T22 peptide: Biotin-SGSGDTEEVFRS

[23] = target: T23, TEEVFRSY; assay: peptide ELISA, A405
T23 construct: member of m19; also called hBak 8-mer 31-38
T23 peptide: Biotin-SGSGTEEVFRSY

[24] = target: T24, EEVFRSYV; assay: peptide ELISA, A405
T24 construct: member of m19; also called hBak 8-mer 32-39
T24 peptide: Biotin-SGSGEEVFRSYV

[25] = target: T25, EVFRSYVF; assay: peptide ELISA, A405
T25 construct: member of m19; also called hBak 8-mer 33-40
T25 peptide: Biotin-SGSGEVFRSYVF

[26] = target: T26, VFRSYVFY; assay: peptide ELISA, A405
T26 construct: member of m19; also called hBak 8-mer 34-41
T26 peptide: Biotin-SGSGVFRSYVFY

[27] = target: T27, FRSYVFYR; assay: peptide ELISA, A405
T27 construct: member of m19; also called hBak 8-mer 35-42
T27 peptide: Biotin-SGSGFRSYVFYR

[28] = target: T28, RSYVFYRH; assay: peptide ELISA, A405
T28 construct: member of m19; also called hBak 8-mer 36-43
T28 peptide: Biotin-SGSGRSYVFYRH

[29] = target: T29, SYVFYRHQ; assay: peptide ELISA, A405
T29 construct: member of m19; also called hBak 8-mer 37-44
T29 peptide: Biotin-SGSGSYVFYRHQ

[30] = target: T30, EAEGVAAP; assay: peptide ELISA, A405
T30 construct: member of m19; also called hBak 8-mer 48-55
T30 peptide: Biotin-SGSGEAEGVAAP

[31] = target: T31, AEGVAAPA; assay: peptide ELISA, A405
T31 construct: member of m19; also called hBak 8-mer 49-56
T31 peptide: Biotin-SGSGAEGVAAPA

[32] = target: T32, EGVAAPAD; assay: peptide ELISA, A405
T32 construct: member of m19; also called hBak 8-mer 50-57
T32 peptide: Biotin-SGSGEGVAAPAD

[33] = target: T33, GVAAPADP; assay: peptide ELISA, A405
T33 construct: member of m19; also called hBak 8-mer 51-58
T33 peptide: Biotin-SGSGGVAAPADP

[34] = target: T34, VAAPADPE; assay: peptide ELISA, A405
T34 construct: member of m19; also called hBak 8-mer 52-59
T34 peptide: Biotin-SGSGVAAPADPE

[35] = target: T35, human Bak 8-mer peptide YVFYRHQQ (residues 38-45) (human); assay: peptide ELISA, A405
T35 peptide: Biotin-SGSGYVFYRHQQ

[36] = target: T2, Bak loop peptide …; assay: ITC at 25° C., Ab at 5 µM and peptide at 100 µM
Procedure: (§2) FIG. 19: Isothermal Titration Microcalorimetry binding profile of 26/05-7D10-17-13 with loop peptide (⁴⁶[…]⁶⁹; SEQ ID NO: 21) at 25° C. A) Titration with Ab at 5 μM and peptide at 100 μM.
(§3) ITC experiments were performed using a MicroCal iTC 200 instrument from GE. Injections of 2.43 μl of peptide solution were added from a computer-controlled microsyringe at an interval of 3 min into the sample solution of antibody (cell volume=300 μl) with stirring at 1000 rpm. Titrations were done at pH 7.2 using […] phosphate-buffered saline. The experimental data were fitted to a theoretical titration curve using software supplied by Microcal.

[37] = target: T2, Bak loop peptide …; assay: ITC at 25° C., Ab at 2.5 µM and peptide at 50 µM
Procedure: as §2, §3

[38] = target: T2, Bak loop peptide …; assay: ITC at 25 °C, Ab 5 µM, peptide 100 µM, OneSites model
Procedure: as §2, §3

[39] = target: T2, Bak loop peptide …; assay: ITC at 25 °C, Ab 2.5 µM, peptide 50 µM, OneSites model
Procedure: as §2, §3

[40] = target: T36, human Bak G51C (human, UniProt Q16611 2-211); assay: immunoprecipitation from membranes incubated with or without tBid, western blot
T36 construct: whole, on cells; In membrane fractions
T36 sequence (looked up): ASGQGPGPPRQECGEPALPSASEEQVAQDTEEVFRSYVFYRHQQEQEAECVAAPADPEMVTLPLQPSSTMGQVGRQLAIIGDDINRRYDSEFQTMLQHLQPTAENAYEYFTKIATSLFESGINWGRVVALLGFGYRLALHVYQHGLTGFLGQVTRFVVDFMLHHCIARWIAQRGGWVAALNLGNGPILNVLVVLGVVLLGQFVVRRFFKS
Procedure: FIG. 4: Ability of antibodies to recognize Bak in different conformations. Membrane fractions from cells expressing Bak (as indicated) were incubated (30 min, 30° C.) with (+) or without (−) Bid, solubilized with digitonin, and incubated with the Bak antibodies shown. Bak in immunoprecipitates and whole cell lysate controls was detected by western blot using the 4B5 antibody. Data are representative of at least two independent experiments ND, not done.
Following activation of Bak in membrane fractions, samples were solubilized by incubation with 1% digitonin on ice for at least 30 min. […] After removing beads by repeated washes in Onyx buffer, lysates were incubated with constant agitation for 2 h at 4° C. with 4 ug/ml anti-Bak antibody, followed by incubation for 1 h at 4° C. with additional pre-washed Sepharose G beads. Immune complexes were isolated by centrifugation (13000 rpm, 2 min, 4° C.), washed 4 times with Onyx buffer, resuspended in sample buffer containing 2-mercaptoethanol and analyzed by western blotting.

B1: 26/05-7D10-17-13 antibody (antibody, V domains shown)
VH: EVELVESGGDLVQPGRSLKLSCAASGFTFSNLAMAWVRQTPTKGLEWVASISPAGITTYYRDSVKGRFTISRDNARNTQYLQMDSLRSEDTATYYCARHTGKSSFFDYWGQGVMVTVSS
VL: DVQMTQSPSYLAASPGESVSISCKATENINTYLAWYQAKPGKTTKLLLYSGSTLQSGTPSRFSGSGSGTDFTLTISSLEPEDFAVYYCQQHNEYPLTFGSGTKLEIK
notes: Rat IgG monoclonal antibody from hybridoma SW1 (ECACC 15041601), WEHI monoclonal antibody facility; also called 26/05-7D10-17-13 MAb; 26/05-7D 10-17-13 anti-Bak antibody
With B1 as the binder, how does the Kd [1] read?
Its Kd is 0.466 nM.

What about the Kd [2] of the same binder?
The Kd was 2.9 nM.

Does B1 bind [3]?
Result: no binding

Does B1 bind [4]?
Result: no binding

Does B1 bind [5]?
Result: no binding

Does B1 bind [6]?
Result: no binding

Does B1 bind [7]?
Result: no binding

Does B1 bind [8]?
Result: binds

Does B1 bind [9]?
Result: binds

Does B1 bind [10]?
Result: no binding

Does B1 bind [11]?
Result: no binding

Does B1 bind [12]?
Result: no binding

Does B1 bind [13]?
Result: binds

Does B1 bind [14]?
Result: no binding

Does B1 bind [15]?
Result: no binding

Does B1 bind [16]?
Result: no binding

Does B1 bind [17]?
Result: no binding

Does B1 bind [18]?
Result: no binding

Does B1 bind [19]?
Result: no binding

Does B1 bind [20]?
Result: no binding

Does B1 bind [21]?
Result: no binding

Does B1 bind [22]?
Result: no binding

Does B1 bind [23]?
Result: no binding

Does B1 bind [24]?
Result: no binding

Does B1 bind [25]?
Result: no binding

Does B1 bind [26]?
Result: no binding

Does B1 bind [27]?
Result: no binding

Does B1 bind [28]?
Result: no binding

Does B1 bind [29]?
Result: no binding

Does B1 bind [30]?
Result: binds

Does B1 bind [31]?
Result: binds

Does B1 bind [32]?
Result: binds

Does B1 bind [33]?
Result: binds

Does B1 bind [34]?
Result: binds

Does B1 bind [35]?
Result: no binding

And the Kd [36]?
The Kd was under 4.3 nM.

And the Kd [37]?
Its Kd is under 4 nM.

And the Ka [38]?
Its Ka is 2.34e+08 M⁻¹.

What about the ΔH [38] of the same binder?
The ΔH was -23.1 kcal/mol.

What about the ΔS [38] of the same binder?
Its ΔS is -39.2 cal/mol/deg.

And the Ka [39]?
Its Ka is 2.26e+08 M⁻¹.

What about the ΔH [39] of the same binder?
The ΔH was -29.3 kcal/mol.

And the ΔS [39]?
The ΔS was -60 cal/mol/deg.

Does B1 bind [40]?
Result: no binding
